Experimental data published in patent publication US4839466A, “Insulin activity messengers” (The Rockefeller University, priority 1987, dated 1989).

How the values were obtained:
PI-glycan PLC = assay: Effects of cations and sulfhydryl reagents on PI-glycan PLC (mfVSG hydrolysis); type: biochemical, rat; conditions: 25 nM mfVSG, 2 hr at 37° C.; for Activity (dpm/2 hr): no addition 3970
Method: Assay of PI-glycan PLC Activity. Enzyme activity was assayed at 37° C. in a final volume of 1 ml with [^3 H]myristate-labeled C-terminal glycopeptide in 25 mM Tris, pH 7.4, with 0.1% NP-40. The reaction was terminated after 1 hr. by extraction with 1 ml toluene. Organic and aqueous phases were separated by brief centrifugation at 100 ×g and the organic phase was taken to dryness in vacuo, redissolved in 40 ul of chloroform:methanol (2:1) containing 5 ug dimyristylglycerol, and spotted on a Silica G TLC plate which had been preactivated by baking at 125° C. for 1-2 hr. The plate was developed twice in petroleum ether:diethyl ether:acetic acid (70:30:2) and then stained with iodine vapor to localize DAG. The DAG region was scraped and counted. Alternatively, 0.5 ml of the organic phase was taken directly for liquid scintillation counting.
Samples from each stage of the purification were incubated in 1 ml with 25 nM [3H]mfVSG for 2 hr at 37° C. and then extracted twice with 1 ml chloroform:methanol (200:1). The organic phases were taken to dryness and analyzed by TLC as described under Experimental Procedures. Each assay was performed in duplicate and was consistant within 10%.
Purified PI-glycan PLC was incubated with 25 nM mfVSG in the presence of the indicated reagents for 2 hr at 37° C. Enzyme activity was assayed as described for Table VIII. All assays were performed in duplicate variance was less than 10%.

BC3 Hl cells = assay: Diacylglycerol and phosphatidic acid production in labeled BC3 Hl myocytes; type: cell-based, murine
Method: FIG. 12--Time Course of Diacylglycerol and Phosphatidic Acid Production in Response to Insulin. Myocytes were incubated for 20 hrs. in serum free DMEM with [9,10^3 H]myristic acid (New England Nuclear), complexed 1:1 to bovine serum albumin. Insulin was added to cells in fresh media for the designated intervals, and reactions were stopped by removal of media and addition of 1 ml chloroform/methanol/1N HCl (200:100:1). 0.6ml H2 O was added and upper aqueous phases were discarded following centrifugation at 500×g for 5 minutes. The lower, organic phases were dried under N2 and resuspended in 1 ml diethyl ether followed by addition of 1 […]. The upper ether phase was aspirated and the lower phase reextracted with 1 ml diethyl ether. The combined ether phases, containing diacylglycerol, were dried under N2, resuspended in chloroform and spotted on silica gel G plates which were preactivated at 60° C. for 1 hr. Plates were twice developed in petroleum ether/diethyl ether/glacial acetic acid (70:30:2). Five ug of unlabeled dimyristoylglycerol were added to each sample. Spots were visualized by iodine staining. To the lower aqueous phases from the ether extraction were added 1 ml of chloroform/methanol (2:1). Following centrifugation, the resulting upper aqueous phases were discarded and the lower organic phases dried under N2, resuspended in chloroform/methanol/H2 O (9:7:2) and spotted on "soft plus" silica gel plates. These were developed in chloroform/pyridine/70% formic acid (50:30:7), and phosphatidic acid was identified by an iodine stained standard. Lipids were scraped and radioactivity determined in a liquid scintillation counter.
BC3 Hl cells were cultured on collagen coated multiwell plates or petri dishes in Dulbecco's minimal essential medium (DMEM) supplemented with 20% Nu serum or 10% fetal calf serum. Cells were grown to maximal density and confluence, at which time they become responsive to insulin. Radiolabeled precursors were added for 20 hrs. in serum-free medium. [^3 H]Myristic and arachidonic acids were complexed 1:1 to bovine serum albumin prior to addition.
Following preincubations with the appropriate isotopes, cells were resuspended in DMEM without serum and treated with 10 nM insulin at the designated intervals. Reactions were terminated by the addition of 1 ml chloroform/methanol/1N HCl (200:100:1), followed by 0.5 ml 10 mM formic acid. Following centrifugation at 500 x g for 5 min., the upper phase was discarded. For phospholipid analyses, the lower, organic phase was dried under N2, resuspended in chloroform/methanol/H2 O (9:7:2) and spotted on oxalate impregnated silica gel G plates. These were sequentially developed in chloroform/acetone/methanol/glacial acidic acid/H2 O (10:4:2:2:1) and chloroform/methanol/4N NH4 OH (45:35:10). One cm regions were scraped and eluted with chloroform/methanol (2:1) and counted. Phosphoinositide standards were identified by iodine staining.
For analysis of neutral lipids, the chloroform/methanol organic phases were dried under N2 and resuspended in 1 ml diethyl ether followed by addition of 1 ml 50 mM formic acid. The upper ether phase was aspirated and the lower aqueous phase was reextracted with 1 ml diethyl ether. The pooled ether phases were dried under N2, resuspended in chloroform and spotted on silica gel G plates which were preactiviated at 60° C. for 1 hr. Plates were twice developed in petroleum ether/diethyl ether/glacial acetic acid (70:30:2). Five ug of unlabeled dimyristoyl glycerol, myristic acid and monomyristoyl glycerol were added as carriers to each sample.

cAMP phosphodiesterase [1] = assay: Generation of PDE messenger from liver membranes by insulin or PI-PLC; extracts assayed on cAMP phosphodiesterase; type: biochemical, rat
Method: These were generated from bovine liver particulate fractions by a modification of previously described methods. Particulate fraction was prepared from 100 g of bovine liver, and suspended in […] ammonium bicarbonate, pH 7.4. (Buffer A) at a final concentration of 2-4 mg protein/ml. This solution was incubated with […] for 10 min at 37° C., acidified to pH 4.0 with formic acid and sedimented at 45,000 g for 20 min. An equal volume of chloroform/methanol (2:1) was added to the supernatant, and the upper phase was aspirated and methanol was evaporated.
In the tests the results of which are tabulated above, liver membranes were treated as indicated for 10 min at 37° C., centrifuged and supernatants were extracted and purified up to and including the Dowex 50WX-4 step as described earlier herein under "Experimental Frocedures".
Partially purified extracts were assayed for ability to modulate cAMP phosphodiesterase. Basal activity was 56.2 pmoles/mg protein^-1 -min^-1.

Pyruvate Dehydrogenase = assay: Generation of an enzyme modulator from liver plasma membranes, pyruvate dehydrogenase readout; type: biochemical, rat
Method: (§1) Purification of the Enzyme Modulator. Bovine liver particulate fraction was prepared as described previously [Saltiel A. R., (1984) "Preparation and Characterization of Putative Insulin Mediators from Liver", METHODS IN DIABETES […], eds. J. Larner, S. Pohl, I:73]. Solutions were incubated in 5 mM ammonium bicarbonate, pH 7.4 with 10 nM insulin or 1 ug/ml PI-PLC as described in the figure legends. Following incubation, solutions were acidified to pH 4.0 and centrifuged at 35,000 x g for 20 minutes. Resulting supernatants were extracted with chloroform/methanol (2:1). The upper aqueous phase was aspirated and methanol was evaporated. Enzyme modulating activities were purified as described in Publication No. 6 listed earlier herein. Briefly, the extract was chromatographed on DEAE-Cellulose and eluted with 0.25M triethylamine (TEA)-formate, pH 3.75. This was followed by chromatography on C-18 reversed phase resin, in the same buffer, followed by Dowex 50W X-4 in 50 mM TEA-formate, pH 3.0. The resulting eluate was lyophilized, resuspended in 50 mM TEA-formate, pH 4.5 and sequentially chromatographed on QAE-Sephadex, SAX HPLC and a P-2 gel filtration column. Only the cyclic inositol phosphate derivative residing in Peak I was examined.
(§2) Enzyme Assays. The low Km cAMP PDE was assayed in a rat adipocyte particulate fraction as previously described [Saltiel, A. R., Steigerwalt,R. W., (1986) "Purification of Putative Insulin-Sensitive cAMP Phosphodiesterase or its Catalytic Domain From Rat Adipocytes", DIABETES, 35:698] and as later modified in Publication No. 6. Activity was linear throughout 20 min. and proportional to protein concentration. Only the low Km species of the enzyme was present in this fraction. PDH activity was assayed in liver mitoplasts after preincubation with ATP as previously described [Saltiel et al., (1982) PROC. NATL. ACAD. SCI. U.S.A., 79:3513.]. Adenylate cyclase activity was also assayed in purified adipocyte plasma membranes. For all enzyme assays, variability was less than 5%.
(§3) Liver membranes were treated with or without 10 nM insulin or 1 ug/ml PI-PLC for 10 min. at 37° C. Following cetrifugation, the supernatants were extracted and purified up to and including the SAX HPLC step. Purified extracts were added to enzyme assays at a final dilution of 1:10. Enzyme activities were assayed with no additions or after addition of purified extracts from control, insulin or PIPPLC treated membrane. Percent of basal activity is expressed in parentheses. ^1 expressed as pmoles/mg protein-min. ^2 expressed as nmoles/mg protein-min.

cAMP phosphodiesterase [2] = assay: Generation of an enzyme modulator from liver plasma membranes, cAMP phosphodiesterase readout; type: biochemical, rat
Method: as §1, §2, §3

Adenylate Cyclase = assay: Generation of an enzyme modulator from liver plasma membranes, adenylate cyclase readout; type: biochemical, rat
Method: as §1, §2, §3

[3] = PI-PLC treatment of lipids extracted from labeled BC3 Hl cells, TLC; type: biochemical, murine; conditions: PI-PLC 30 min.
Method: FIG. 8--SAX HPLC of Radiolabeled Mediators Produced by PI-PLC. Cells were prelabeled as described in FIG. 7, extracted in chloroform/methanol/1N HCl (200:100:1) and centrifuged at 1000 x g for 10 min. The supernatant was dried under N2 and resuspended in 1 mil of 50 mM ammonium bicarbonate, pH 7.4. These solutions were treated with 0.1 ug/ml PI-PLC from S. aureus for 30 min. at 37° C. Reactions were terminated by reextraction with 1 ml of chloroform/methanol/1N HCl (200:100:1) and aqueous and organic phases separated. The aqueous phases were then purified as described in FIG. 7 and chromatographed on SAX HPLC column, eluted as described.
FIG. 10--Thin Layer Chromatography of the Radiolabeled Precursor After PI-PLC Treatment. Cells were labeled, extracted, treated with or without PI-PLC and reextracted as described in FIG. 8. Organic phases were chromatographed on thin layer plates as detailed in FIG. 9.

[4] = cells incubated with [3H]arachidonic acid

Molecule: O=C(O)CN(CCOCCOCCN(CC(=O)O)CC(=O)O)CC(=O)O [EGTA]
- % control (PI-glycan PLC; addition at 100 uM): 148 % control
- Activity (dpm/2 hr) (PI-glycan PLC; addition at 100 uM): 5900 dpm/2 hr

Molecule: OCCS [2-mercaptoethanol]
- % control (PI-glycan PLC; addition at 50 mM): 190 % control
- Activity (dpm/2 hr) (PI-glycan PLC; addition at 50 mM): 7564 dpm/2 hr

Molecule: [Cl][Hg][Cl] [HgCl2]
- % control (PI-glycan PLC; addition at 100 uM): 17 % control
- Activity (dpm/2 hr) (PI-glycan PLC; addition at 100 uM): 677 dpm/2 hr

Molecule: CNC[C@H](O)c1ccc(O)c(O)c1 [epinephrine]
- change in [3H]myristoyl diacylglycerol (BC3 Hl cells; [3H]myristate labeled cells): no significant change
- change in [3H]arachidonyl diacylglycerol (BC3 Hl cells; [4]): rapid increase
- time of maximal increase in [3H]arachidonyl diacylglycerol (BC3 Hl cells; [4]): 1 min

B1: PI-PLC: purified phosphatidylinositol specific phospholipase C from S. aureus (protein, UniProt P45723 27-312, looked up)
1-phosphatidylinositol …: DGKHLTEINIPGSHDSGSFTLKDPVKSVWAKTQDKDYLTQMKSGVRFFDIRGRASADNMISVHHGMVYLHHELGKFLDDAKYYLSAYPNETIVMSMKKDYDSDSKVTKTFEEIFREYYYNNPQYQNLFYTGSNANPTLKETKGKIVLFNRMGGTYIKSGYGADTSGIQWADNATFETKINNGSLNLKVQDEYKDYYDKKVEAVKNLLAKAKTDSNKDNVYVNFLSVASGGSAFNSTYNYASHINPEIAKTIKANGKARTGWLIVDYAGYTWPGYDDIVSEIIDSNK
- stimulation/increase of production of PDE modulating activity from membranes (cAMP phosphodiesterase [1]; after partial purification, PI-PLC 1.0 ug/ml): 6 fold
- PDE Activity (cAMP phosphodiesterase [1]; extract of liver membranes treated 10 min at 37° C. (1.0 nM Insulin, PI-PLC), purified up to Dowex 50WX-4, basal 56.2, untreated membranes 78.5): 191.3 pmol mg protein^-1 min^-1
- Pyruvate Dehydrogenase, percent of basal activity (Pyruvate Dehydrogenase; as E43): 296.6%
- Pyruvate Dehydrogenase activity (Pyruvate Dehydrogenase; extract as E41, no addition 1.77±0.07, control membranes 2.45±0.20): 5.25±0.40 nmoles/mg protein-min.
- cAMP Phosphodiesterase, percent of basal activity (cAMP phosphodiesterase [2]; as E41): 311.1%
- cAMP Phosphodiesterase activity (cAMP phosphodiesterase [2]; extract of liver membranes treated with 10 nM insulin or 1 ug/ml PI-PLC 10 min. 37° C., purified to SAX HPLC, dilution 1:10, no addition 61.7±4.2, control membranes 78.5±5.6): 192±5 pmoles/mg protein-min.
- Adenylate Cyclase, percent of basal activity (Adenylate Cyclase; as E45): 25.0%
- Adenylate Cyclase activity (Adenylate Cyclase; extract as E41, no addition 272±14, control membranes 210±4): 68.7±7.6 pmoles/mg protein-min.
- decrease in [3H]glucosamine labeling of the precursor spot [3]: 40%
- decrease in [3H]inositol labeling of the precursor spot [3]: 60%
- depletion of PI [3]: 50%
